Values quoted from earlier work, collected in PMC10581250.

Assays:
[1] = biological target: OdhA (E1oE2o subunit) (Corynebacterium glutamicum) (UniProt Q8NRC3)
[2] = biological target: OdhA (Corynebacterium glutamicum) (UniProt Q8NRC3); experiment: surface plasmon resonance
[3] = biological target: KGD (Mycobacterium smegmatis) (UniProt A1KI36)
UniProt A1KI36, sequence (A1KI36 whole entry): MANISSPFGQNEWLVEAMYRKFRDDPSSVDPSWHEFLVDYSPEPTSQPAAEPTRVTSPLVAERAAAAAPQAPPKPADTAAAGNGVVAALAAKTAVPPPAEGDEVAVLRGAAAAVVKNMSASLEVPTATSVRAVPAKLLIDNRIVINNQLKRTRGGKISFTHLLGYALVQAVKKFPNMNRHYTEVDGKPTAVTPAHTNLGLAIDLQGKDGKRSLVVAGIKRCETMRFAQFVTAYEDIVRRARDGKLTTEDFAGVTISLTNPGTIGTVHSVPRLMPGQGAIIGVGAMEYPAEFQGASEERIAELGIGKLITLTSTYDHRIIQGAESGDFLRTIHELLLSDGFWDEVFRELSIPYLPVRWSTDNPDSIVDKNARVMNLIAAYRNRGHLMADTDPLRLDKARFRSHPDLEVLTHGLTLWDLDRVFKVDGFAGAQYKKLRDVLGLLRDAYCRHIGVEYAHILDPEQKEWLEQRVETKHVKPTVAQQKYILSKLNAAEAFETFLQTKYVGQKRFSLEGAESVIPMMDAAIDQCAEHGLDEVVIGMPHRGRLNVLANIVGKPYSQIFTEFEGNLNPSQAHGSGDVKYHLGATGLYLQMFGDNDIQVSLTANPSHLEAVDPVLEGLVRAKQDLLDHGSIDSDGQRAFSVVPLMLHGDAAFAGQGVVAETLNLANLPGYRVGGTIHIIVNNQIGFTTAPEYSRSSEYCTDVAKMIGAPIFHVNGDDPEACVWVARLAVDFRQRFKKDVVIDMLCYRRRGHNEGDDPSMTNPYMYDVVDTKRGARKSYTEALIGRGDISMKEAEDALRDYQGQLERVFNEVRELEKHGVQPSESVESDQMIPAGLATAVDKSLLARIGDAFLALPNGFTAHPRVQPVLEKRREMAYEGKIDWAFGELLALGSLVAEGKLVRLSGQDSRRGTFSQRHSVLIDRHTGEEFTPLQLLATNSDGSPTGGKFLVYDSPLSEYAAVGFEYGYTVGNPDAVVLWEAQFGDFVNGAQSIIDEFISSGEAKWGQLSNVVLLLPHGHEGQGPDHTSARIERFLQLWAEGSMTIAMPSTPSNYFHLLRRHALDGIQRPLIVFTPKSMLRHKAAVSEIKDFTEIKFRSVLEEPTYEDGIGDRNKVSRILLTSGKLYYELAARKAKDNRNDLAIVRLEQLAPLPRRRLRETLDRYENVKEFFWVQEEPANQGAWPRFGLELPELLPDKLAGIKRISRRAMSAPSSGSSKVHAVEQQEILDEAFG

In the case of OdhI (from UniProt Q8NQJ3), the Ki [1] is given as 2.4 nM and the Kd [2] is given as 13.8 nM.
In the case of GarA (from UniProt P9WJA9), the Kd [3] is given as 1920 nM.
